{"source": "IntAct's records for PubMed 20953186", "parents": {"B1": {"name": "E3 ubiquitin ligase TRAF3IP2 (Homo sapiens), O43734-2 (parent)", "chain": "MNRSIPVEVDESEPYPSQLLKPIPEYSPEEESEPPAPNIRNMAPNSLSAPTMLHNSSGDFSQAHSTLKLANHQRPVSRQVTCLRTQVLEDSEDSFCRRHPGLGKAFPSGCSAVSEPASESVVGALPAEHQFSFMEKRNQWLVSQLSAASPDTGHDSDKSDQSLPNASADSLGGSQEMVQRPQPHRNRAGLDLPTIDTGYDSQPQDVLGIRQLERPLPLTSVCYPQDLPRPLRSREFPQFEPQRYPACAQMLPPNLSPHAPWNYHYHCPGSPDHQVPYGHDYPRAAYQQVIQPALPGQPLPGASVRGLHPVQKVILNYPSPWDHEERPAQRDCSFPGLPRHQDQPHHQPPNRAGAPGESLECPAELRPQVPQPPSPAAVPRPPSNPPARGTLKTSNLPEELRKVFITYSMDTAMEVVKFVNFLLVNGFQTAIDIFEDRIRGIDIIKWMERYLRDKTVMIIVAISPKYKQDVEGAESQLDEDEHGLHTKYIHRMMQIEFIKQGSMNFRFIPVLFPNAKKEHVPTWLQNTHVYSWPKNKKNILLRLLREEEYVAPPRGPLPTLQVVPL", "partner": "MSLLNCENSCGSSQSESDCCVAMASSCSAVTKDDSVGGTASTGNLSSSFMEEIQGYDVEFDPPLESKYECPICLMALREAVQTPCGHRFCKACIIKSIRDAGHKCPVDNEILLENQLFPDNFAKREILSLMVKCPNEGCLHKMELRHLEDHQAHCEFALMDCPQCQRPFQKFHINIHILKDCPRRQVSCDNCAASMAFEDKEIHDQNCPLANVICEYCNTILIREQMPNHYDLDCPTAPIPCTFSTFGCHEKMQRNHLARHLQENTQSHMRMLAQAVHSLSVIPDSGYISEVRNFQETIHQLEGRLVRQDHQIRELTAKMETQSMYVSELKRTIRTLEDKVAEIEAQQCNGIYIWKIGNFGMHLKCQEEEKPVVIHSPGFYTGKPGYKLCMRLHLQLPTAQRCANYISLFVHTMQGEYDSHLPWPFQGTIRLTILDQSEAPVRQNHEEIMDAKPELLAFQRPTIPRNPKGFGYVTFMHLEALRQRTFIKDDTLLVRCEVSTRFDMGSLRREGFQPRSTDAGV"}}, "data": [{"variants_of": "B1", "settings": "with traf6_human TRAF6, Q9Y4K3", "values": [{"variant": "D10N", "effect of a mutation on the interaction": "disrupting interaction"}]}]}
